The text below walks through data of patent publication US20140271653A1.

Holding throughout (assay): cell-based or functional assay
For assay [1], the target named is RSV-F of RSV subtype B strain 9320 (respiratory syncytial virus subtype B, strain 9320).
For assay [2], the target named is RSV-F of RSV subtype A clinical isolate A2001/2-20 (respiratory syncytial virus subtype A, clinical isolate A2001/2-20).
In assay [3] the target is RSV-F of RSV subtype B strain 1400 (respiratory syncytial virus subtype B, strain 1400).
Assay [4] concerns the target RSV-F of RSV subtype A clinical isolate A1997/12-35 (respiratory syncytial virus subtype A, clinical isolate A1997/12-35).
The target of assay [5] is RSV-F of RSV subtype B strain 18537 (respiratory syncytial virus subtype B, strain 18537) (UniProt P13843).
In assay [6] the target is RSV-F of RSV subtype A clinical isolate A2001/3-12 (respiratory syncytial virus subtype A, clinical isolate A2001/3-12).
Assay [7] has as its target RSV-F of RSV subtype B strain 1A2 (respiratory syncytial virus subtype B, strain 1A2).
Assay [8] has as its target RSV-F of RSV subtype A strain A2 (1540) (respiratory syncytial virus subtype A, strain A2 (1540)) (UniProt P03420).
Assay [9] has as its target RSV-F of RSV subtype A strain Long (respiratory syncytial virus subtype A, strain Long) (UniProt P12568).
Assay [10] has as its target RSV-F of RSV subtype A clinical isolate A1998/12-21 (respiratory syncytial virus subtype A, clinical isolate A1998/12-21).
Assay [11] addresses RSV-F of RSV subtype A clinical isolate A1998/3-2 (respiratory syncytial virus subtype A, clinical isolate A1998/3-2).
The target in assay [12] is RSV-F of RSV subtype A clinical isolate A2000/3-4 (respiratory syncytial virus subtype A, clinical isolate A2000/3-4).

Control III (AM-22) (antibody), sequence (VH): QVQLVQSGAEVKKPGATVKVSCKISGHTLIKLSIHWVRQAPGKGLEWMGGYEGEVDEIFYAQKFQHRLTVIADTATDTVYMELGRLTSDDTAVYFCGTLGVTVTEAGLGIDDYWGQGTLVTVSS
Control III (AM-22) (antibody), sequence (VL): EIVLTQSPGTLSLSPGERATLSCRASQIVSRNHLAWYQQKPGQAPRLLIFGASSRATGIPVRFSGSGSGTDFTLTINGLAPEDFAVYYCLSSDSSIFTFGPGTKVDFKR
RSV-F of RSV subtype B strain 18537 (respiratory syncytial virus subtype B, strain 18537), sequence (P13843 26-574): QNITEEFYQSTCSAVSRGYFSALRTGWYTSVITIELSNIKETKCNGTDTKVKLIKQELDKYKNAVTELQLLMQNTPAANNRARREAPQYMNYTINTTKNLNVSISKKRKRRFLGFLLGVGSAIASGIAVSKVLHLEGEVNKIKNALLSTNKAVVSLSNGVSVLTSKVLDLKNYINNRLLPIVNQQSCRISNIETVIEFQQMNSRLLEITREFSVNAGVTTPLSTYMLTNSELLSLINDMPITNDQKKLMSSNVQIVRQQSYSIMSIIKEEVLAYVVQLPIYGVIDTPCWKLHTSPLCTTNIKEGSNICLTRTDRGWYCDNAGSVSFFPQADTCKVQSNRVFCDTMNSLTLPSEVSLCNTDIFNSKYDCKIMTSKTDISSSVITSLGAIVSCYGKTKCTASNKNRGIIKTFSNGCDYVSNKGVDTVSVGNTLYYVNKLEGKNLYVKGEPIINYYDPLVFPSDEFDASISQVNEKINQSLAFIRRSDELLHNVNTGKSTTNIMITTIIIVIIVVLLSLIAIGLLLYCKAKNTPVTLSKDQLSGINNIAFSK
RSV-F of RSV subtype A strain Long (respiratory syncytial virus subtype A, strain Long), sequence (P12568 26-574): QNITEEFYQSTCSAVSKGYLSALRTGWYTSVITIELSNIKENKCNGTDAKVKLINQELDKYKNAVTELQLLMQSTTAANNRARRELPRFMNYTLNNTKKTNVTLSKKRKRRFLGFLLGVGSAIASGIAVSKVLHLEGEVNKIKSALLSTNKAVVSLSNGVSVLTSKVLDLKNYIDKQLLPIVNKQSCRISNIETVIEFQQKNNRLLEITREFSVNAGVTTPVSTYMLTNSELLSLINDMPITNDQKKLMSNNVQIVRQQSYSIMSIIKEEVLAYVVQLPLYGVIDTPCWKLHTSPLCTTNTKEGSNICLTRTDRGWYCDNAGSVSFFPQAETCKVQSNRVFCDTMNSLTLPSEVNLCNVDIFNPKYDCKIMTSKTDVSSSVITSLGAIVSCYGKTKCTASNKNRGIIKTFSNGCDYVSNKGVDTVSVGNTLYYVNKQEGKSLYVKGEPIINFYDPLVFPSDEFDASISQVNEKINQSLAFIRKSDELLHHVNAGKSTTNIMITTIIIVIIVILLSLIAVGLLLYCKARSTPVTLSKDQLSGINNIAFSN
RSV-F of RSV subtype A strain A2 (1540) (respiratory syncytial virus subtype A, strain A2 (1540)), sequence (P03420 26-574): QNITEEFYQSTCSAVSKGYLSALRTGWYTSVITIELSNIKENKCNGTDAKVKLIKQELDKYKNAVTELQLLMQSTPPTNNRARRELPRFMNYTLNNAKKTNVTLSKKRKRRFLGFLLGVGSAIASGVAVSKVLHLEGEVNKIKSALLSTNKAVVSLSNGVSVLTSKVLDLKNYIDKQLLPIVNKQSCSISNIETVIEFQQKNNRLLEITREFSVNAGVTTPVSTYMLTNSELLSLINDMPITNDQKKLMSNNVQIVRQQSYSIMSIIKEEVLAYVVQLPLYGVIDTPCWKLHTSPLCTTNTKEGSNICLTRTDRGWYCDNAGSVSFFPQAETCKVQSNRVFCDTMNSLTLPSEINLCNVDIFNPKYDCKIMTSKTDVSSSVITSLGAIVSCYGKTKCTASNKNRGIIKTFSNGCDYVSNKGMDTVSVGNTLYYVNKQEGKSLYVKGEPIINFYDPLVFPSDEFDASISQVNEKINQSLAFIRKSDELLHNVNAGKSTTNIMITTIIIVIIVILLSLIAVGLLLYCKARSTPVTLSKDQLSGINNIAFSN

Consider Control III (AM-22) (antibody), for which the IC50 (pM), RSV micro-neutralization, B/9320 in assay [1] is 2510 pM. Besides, the IC50 (pM), RSV micro-neutralization, clinical isolate in assay [2] was 72 pM; in assay [4], 20 pM; in [6], 60 pM; in assay [10], 43 pM; in [11], 31 pM; in [12] it was 55 pM. The substance further came in with an IC50 (pM), RSV micro-neutralization, B/1400 in assay [3] of 190 pM. In addition, the IC50 (pM), RSV micro-neutralization, B/18537 in assay [5] turned out to be 660 pM. Moreover, in [7], the IC50 (pM), RSV micro-neutralization, B/1A2 was 580 pM. Moreover, the IC50 (pM), RSV micro-neutralization, A/A2 in assay [8] was 91 pM. Also, the IC50 (pM), RSV micro-neutralization, A/Long in assay [9] was found to be 86 pM.
